Experimental data from US7345026.
Like-named read-outs stand apart in the source and are kept apart here.

Biological target: HLA-A2.1 molecules on T2 (TAP-, HLA-A2.1+) cells (human)
Assay: T2 cells, peptide binding by surface HLA-A2.1 (BB7.2) flow cytometry; ratio of concentrations reaching 20% of maximal binding

| Binder | RA (relative affinity) (ratio to HIV 1 rt.476 reference peptide) | RA (relative affinity) (ratio to HIV 1 rt.476 reference peptide) (remark: other sources report otherwise) |
| --- | --- | --- |
| VLPDVFIRC (modifications not checked) [NA17-A nt38-64 epitopic peptide] | 1.52 |  |
| RMPEAAPPV [p53 65-73 epitopic peptide] |  | 0.91 |
